This note sets out measurements from patent publication US7906119 (Human Genome Sciences, dated 2011).

The term Kd denotes a measure of binding affinity in units of concentration. Low readings indicate a tighter complex, high ones a looser complex. For orientation: koff means the rate constant with which the complex falls apart. High values mean a short-lived complex, low ones a long-lived complex. Usually kon stands for the second-order rate constant of association. A low value points to slow association.

For this experiment, the target named is PA heptamer (Bacillus anthracis, UniProt P13423 197-764). The experiment can be described thus: BIAcore; PA heptamer immobilized on CM5 chip, IgG1 in solution. (In general: In SPR one partner is held on a chip, and binding of the other changes the refractive index at the surface.)
PA heptamer, sequence (P13423 197-764): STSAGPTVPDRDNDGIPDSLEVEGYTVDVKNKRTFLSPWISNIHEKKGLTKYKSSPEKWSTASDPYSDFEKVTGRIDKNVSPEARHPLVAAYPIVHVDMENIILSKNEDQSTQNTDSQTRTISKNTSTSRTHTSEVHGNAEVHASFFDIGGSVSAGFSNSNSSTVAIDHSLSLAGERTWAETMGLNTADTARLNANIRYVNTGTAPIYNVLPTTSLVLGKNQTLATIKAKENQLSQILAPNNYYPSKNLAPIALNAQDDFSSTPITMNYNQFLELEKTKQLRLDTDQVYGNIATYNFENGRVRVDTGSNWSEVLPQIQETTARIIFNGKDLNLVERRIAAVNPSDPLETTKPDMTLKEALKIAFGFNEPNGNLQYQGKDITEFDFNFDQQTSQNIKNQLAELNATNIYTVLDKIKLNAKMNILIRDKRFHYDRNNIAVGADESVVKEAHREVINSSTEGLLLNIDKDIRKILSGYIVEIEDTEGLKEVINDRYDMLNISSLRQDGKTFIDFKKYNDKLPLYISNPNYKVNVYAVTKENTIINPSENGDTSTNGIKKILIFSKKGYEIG

B1: PWD0283 (IgG1 format) (antibody, V domains shown)
VH: EVQLLESGGGLVQPGGSLRLSCAASGFTFSSYATSWVRQAPGKGLEWVSAISGSGGSTYYADSVKGRFTISRDNSKNTLYLQMNSLRAEDTAVYYCARVGGAIRFDSWGRGTLVTVSS
VL: SYELTQPPSASETPGQRVSISCSGGTSNIGSNTINWYQQVPGTAPKLLIYFNNRRPAGVPARFSASKSGTSASLTISGLQSEDEADYYCSAWDDSLSGVVFGGGTKLTVLG
On to B1, for which the Kd was found to be 0.187 nM, the off-rate constant (koff) was 0.000426 s⁻¹ and the kon worked out at 2.28e+06 M⁻¹ s⁻¹.
